Measured values as given in patent US20260248947A1, “Methods of Treating Cancer Using Anti-HER2 Antibody-Drug Conjugates and HER2 Kinase Inhibitors” (Seagen Inc., priority 2023, published 2026).

Key:
[1] = test system: gastric cancer PDX models; assay: Tumor volume in gastric cancer PDX models with variable HER2 expression; type: in vivo, Mice; settings: in a majority of the six PDX models; DV 2 mg/kg intravenous single dose
Text: FIGS. […] show the effects of combining DV and tucatinib vs. DV as a single agent in gastric cancer patient-derived xenograft (PDX) models with varying HER2 expression levels: GA13745 (IHC 1+; FIGS. 12A, 12B), GA6821 (IHC 1+; FIGS. 12C, 12D), CTG-0148 (IHC 1+; FIGS. 12E, 12F), CTG-3036 (IHC 2+; FIGS. 12G, 12H), CTG-3033 (IHC 3+; FIGS. 12I, 12J), and GA3102 (IHC 3+; FIGS. 12K, 12L). Treatment with T-DXd, a HER2-directed ADC, was also included in the study. Tumor volume data shown as mean±SEM. For each model, tumor growth was evaluated using a normalized area under the curve (AUC) metric (see, Guo, S. et al. (2019) BMC Cancer 19, 718) (FIGS. 12A, 12C, 12E, 12G, 12I, 12K). AUC was calculated for each model for the duration of the experiment, then compared by one-way ANOVA followed by Tukey's post-hoc test. The box-and-whisker plots represent the median and range for each treatment group (FIGS. 12B, 12D, 12F, 12H, 12J, 12L). […]
DV and tucatinib were tested as monotherapies and in combination in PDX models with varying HER2 expression levels. […] Mice (n=10/group) were treated with tucatinib (50 mg/kg oral, twice daily), DV (2 mg/kg, intravenous, single dose), a combination of tucatinib and DV, or T-DXd (2 mg/kg, intravenous, single dose), and tumor volume was measured over time.

[2] = target: HER2 (Homo sapiens, UniProt P04626); assay: Internalization of anti-HER2 ADCs DV, T-DM1 and T-DXd; type: cell-based; design: endogenous in cells; host or cells: SK-BR-3, BT-474, HCC-202, EFM-192C, BT-483, CAMA-1, NCI-N87, OE19, RERF-GC-1B; settings: results considered preliminary
Procedure: The internalization experiments were conducted by detecting an antibody-bound pH sensitive probe using automated time-lapse microscopy. Briefly, breast cancer cell lines SK-BR-3, BT-474, HCC-202, EFM-192C, BT-483, and CAMA-1 and gastric cancer cell lines NCI-N87, OE19, and RERF-GC-1B were seeded in 96-well flat clear-bottom black tissue culture-treated microplates (Corning, cat #3603). Cells were plated at 1.5×10^4-2.5×10^4 cells/200 μL/well in growth medium and allowed to adhere overnight at 37° C. Disitamab, trastuzumab, and isotype control antibody (human IgG) were labeled with IncuCyte Fabfluor-pH Red Antibody Labeling Reagent (Essen Bioscience, cat #4722) according to the manufacturer's protocol. Volumes of the test antibodies, Fabfluor reagent and medium required were calculated at 2× the final assay concentration, and the Fabfluor reagent was added at a molar ratio of 1:3 to the antibody. Fabfluor dye fluoresces only upon exposure to an acidified compartment, namely endocytic vesicles and lysosomes, signifying internalization and intracellular processing of the ADC. Antibody and Fabfluor were mixed gently and incubated at 37° C. for 15 minutes. Media containing Fabfluor-labeled disitamab or trastuzumab ([…] final concentration) was added to cells. The plates were arranged on microplate trays in the IncuCyte SX3 system (Essen Bioscience), and scans were acquired using the Standard protocol. Phase data and red channel data (acquisition time set to 400 ms) were collected, with 4 images per well every 30 minutes for the first 6 hours and every 2 hours after that for up to 40 hours with the objective set at 10×. Quantification of fluorescence signal intensity was performed using the IncuCyte software analysis tool.
(§1) Internalization of anti-HER2 ADCs DV, T-DM1, and T-DXd (two HER2-targeting ADCs with trastuzumab as a backbone) was also tested in breast cancer cell lines SK-BR-3, HCC-202, and BT-483.

[3] = test system: panel of breast cancer cell lines spanning a range of HER2 expression; assay: 96-hour CellTiterGlo cytotoxicity assay of DV, T-DM1 and T-DXd; type: cell-based
Procedure: The following cell lines were cultured in the vendor-recommended conditions: breast cancer cell lines SK-BR-3, BT-474, UACC-893, HCC-202, JIMT-1, and BT-483. Cytotoxicity assays were performed using CellTiter-Glo (CTG) Luminescent Cell Viability assay (Promega Corporation) as per the manufacturer's protocol. Cells were seeded in 96-well plates and incubated overnight as previously described (1). […] Cells were then incubated at 37° C. in 5% CO2, and cell viability was measured at 96 hours after dosing.
as §1

[4] = test system: HER2-low breast cancer patient-derived xenograft (PDX) models CTG-1520 (IHC 0), CTG-0012 (IHC 1+), CTG-0670 (IHC 2+); assay: Tumor volume in HER2-low breast cancer PDX models; type: in vivo, Mice; settings: single intravenous dose 0.3, 1, 2 or 5 mg/kg; in a subset of the models
Procedure: First, the anti-tumor effect of DV as a monotherapy was tested in three PDX models with varying HER2 expression levels. Three breast cancer PDX models were used: CTG-1520 (IHC 0), CTG-0012 (IHC 1+), and CTG-0670 (IHC 2+). Mice (n=10/group) were treated with the indicated concentrations of DV (intravenous, single dose), and tumor volume was measured over time. […] Dashed lines represent carry-over of tumor volumes from individual animals that were removed from study when their tumors reached maximum allowable size (less than 3/10 animals per group).
Next, DV and tucatinib were tested as monotherapies and in combination in the three PDX models. Mice (n=10/group) were treated with the indicated concentrations of tucatinib (50 mg/kg oral, twice daily), DV (1 or 2 mg/kg, intravenous, single dose), or a combination of tucatinib and DV, and tumor volume was measured over time. […] Dotted lines represent carry-over of tumor volumes from individual animals that were removed from study when their tumors reached maximum allowable size (less than 3/10 animals per group).

disitamab vedotin [DV]
anti-tumor activity of DV monotherapy [1]: anti-tumor activity | internalization compared to T-DM1 and T-DXd ([2]; BT-483): enhanced internalization | internalization compared to T-DM1 and T-DXd ([2]; HCC-202): enhanced internalization | internalization compared to T-DM1 and T-DXd ([2]; SK-BR-3): enhanced internalization | IC50 compared with the IC50 for T-DM1 and T-DXd ([3]; for each cell line of the panel): lower | in vitro cytotoxic activity against the panel of breast cancer cell lines ([3]; variable HER2 expression, including HER2-low range, 0.01-10,000 ng/mL): in vitro cytotoxic activity | anti-tumor effects (tumor volume) of DV monotherapy [4]: anti-tumor effects in a dose-dependent manner
